Results taken from article PMC4371549 (The Biochemical journal, 2010).
Where two headings read alike, the source gives them in different places.

How the values were obtained:
Assay in all cases: resonant mirror detection
[1] = molecular target: recombinant 4.1R^135 (135kDa isoform of protein 4.1R) (human, UniProt P11171 1-864)
[2] = molecular target: full length recombinant human protein 4.1G (human, UniProt O43491 1-1005)
complex of 4.1G and CaM [3] = molecular target: T1, complex of 4.1G and CaM (human | , UniProt O43491 1-1005; P0DP23 1-149)
complex of 4.1G and CaM [4] = molecular target: T1, complex of 4.1G and CaM; remark: listed apart in the source

recombinant 4.1R^135 (135kDa isoform of protein 4.1R), sequence (P11171 whole entry, canonical isoform): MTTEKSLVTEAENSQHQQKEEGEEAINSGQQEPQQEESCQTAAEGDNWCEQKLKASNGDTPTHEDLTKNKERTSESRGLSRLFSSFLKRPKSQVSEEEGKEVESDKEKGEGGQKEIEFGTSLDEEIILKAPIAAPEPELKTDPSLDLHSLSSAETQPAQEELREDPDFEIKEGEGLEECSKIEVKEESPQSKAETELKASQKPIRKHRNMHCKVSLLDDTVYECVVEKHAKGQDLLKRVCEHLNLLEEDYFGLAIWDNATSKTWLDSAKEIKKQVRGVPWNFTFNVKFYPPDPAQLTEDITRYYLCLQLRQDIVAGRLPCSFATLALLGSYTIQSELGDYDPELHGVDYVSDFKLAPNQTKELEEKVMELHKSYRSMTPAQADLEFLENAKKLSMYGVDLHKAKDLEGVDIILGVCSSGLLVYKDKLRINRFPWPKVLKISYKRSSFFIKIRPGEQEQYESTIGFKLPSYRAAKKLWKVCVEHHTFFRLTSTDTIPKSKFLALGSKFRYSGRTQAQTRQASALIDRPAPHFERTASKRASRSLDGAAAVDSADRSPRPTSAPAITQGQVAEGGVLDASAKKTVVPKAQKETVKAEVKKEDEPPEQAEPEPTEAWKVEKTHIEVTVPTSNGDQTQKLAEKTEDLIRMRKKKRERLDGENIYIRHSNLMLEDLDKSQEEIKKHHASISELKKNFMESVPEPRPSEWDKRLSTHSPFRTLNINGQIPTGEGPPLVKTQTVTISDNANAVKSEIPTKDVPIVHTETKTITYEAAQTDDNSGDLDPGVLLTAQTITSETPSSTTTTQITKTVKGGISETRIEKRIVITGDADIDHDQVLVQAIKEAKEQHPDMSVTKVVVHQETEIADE
full length recombinant human protein 4.1G, sequence (O43491 whole entry): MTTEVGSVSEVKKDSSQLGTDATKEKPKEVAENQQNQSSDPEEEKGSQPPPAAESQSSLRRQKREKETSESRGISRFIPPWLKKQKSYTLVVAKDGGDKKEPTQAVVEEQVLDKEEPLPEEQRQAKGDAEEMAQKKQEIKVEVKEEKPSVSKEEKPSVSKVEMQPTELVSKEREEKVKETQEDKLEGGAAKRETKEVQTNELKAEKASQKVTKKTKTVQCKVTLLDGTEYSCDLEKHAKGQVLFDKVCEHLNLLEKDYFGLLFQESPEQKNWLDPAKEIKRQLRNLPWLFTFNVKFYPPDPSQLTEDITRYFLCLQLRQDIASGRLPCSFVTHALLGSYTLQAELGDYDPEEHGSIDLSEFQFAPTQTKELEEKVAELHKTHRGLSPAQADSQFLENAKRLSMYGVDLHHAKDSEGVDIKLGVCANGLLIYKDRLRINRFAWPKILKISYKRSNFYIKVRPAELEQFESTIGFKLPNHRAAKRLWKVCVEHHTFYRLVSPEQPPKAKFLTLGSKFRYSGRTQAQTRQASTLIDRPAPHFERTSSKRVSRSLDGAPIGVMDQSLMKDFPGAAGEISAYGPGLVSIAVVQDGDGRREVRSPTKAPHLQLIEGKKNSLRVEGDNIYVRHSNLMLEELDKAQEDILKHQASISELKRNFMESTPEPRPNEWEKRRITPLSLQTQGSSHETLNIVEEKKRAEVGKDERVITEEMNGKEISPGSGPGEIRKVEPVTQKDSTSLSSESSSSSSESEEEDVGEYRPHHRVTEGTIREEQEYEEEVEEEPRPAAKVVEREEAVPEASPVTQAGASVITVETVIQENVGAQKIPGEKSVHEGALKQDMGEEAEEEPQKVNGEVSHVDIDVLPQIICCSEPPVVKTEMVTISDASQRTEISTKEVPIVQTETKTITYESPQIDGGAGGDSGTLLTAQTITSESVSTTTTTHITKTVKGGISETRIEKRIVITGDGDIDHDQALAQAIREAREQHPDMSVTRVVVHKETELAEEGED

Binder	Kd [1] [µM]	koff [1] [s⁻¹]	kon [1] [M⁻¹ s⁻¹]	Kd [2] [µM]	koff [2] [s⁻¹]	kon [2] [M⁻¹ s⁻¹]	Kd (complex of 4.1G and CaM [3]) [µM]	koff (complex of 4.1G and CaM [3]) [s⁻¹]	kon (complex of 4.1G and CaM [3]) [M⁻¹ s⁻¹]	Kd (complex of 4.1G and CaM [4]) [µM]	koff (complex of 4.1G and CaM [4]) [s⁻¹]	kon (complex of 4.1G and CaM [4]) [M⁻¹ s⁻¹]
cytoplasmic domain of band 3 (domain or fragment, UniProt P02730 1-403, looked up) MEELQDDYEDMMEENLEQEEYEDPDIPESQMEEPAAHDTEATATDYHTTSHPGTHKVYVELQELVMDEKNQELRWMEAARWVQLEENLGENGAWGRPHLSHLTFWSLLELRRVFTKGTVLLDLQETSLAGVANQLLDRFIFEDQIRPQDREELLRALLLKHSHAGELEALGGVKPAVLTRSGDPSQPLLPQHSSLETQLFCEQGDGGTEGHSPSGILEKIPPDSEATLVLVGRADFLEQPVLGFVRLQEAAELEAVELPVPIRFLFVLLGPEAPHIDYTQLGRAAATLMSERVFRIDAYMAQSRGELLHSLEGFLDCSLVLPPTDAPSEQALLSLVPVQRELLRRRYQSSPAKPDSSFYKGLDLNGGPDDPLQQTGQLFGGLVRDIRRRYPYYLSDITDAFSP	0.023	0.0071	310000	0.185	0.014	80000	0.127	0.064	510000	–	–	–
p55 (natural protein, UniProt Q00013 1-466, looked up) MTLKASEGESGGSMHTALSDLYLEHLLQKRSRPEAVSHPLNTVTEDMYTNGSPAPGSPAQVKGQEVRKVRLIQFEKVTEEPMGITLKLNEKQSCTVARILHGGMIHRQGSLHVGDEILEINGTNVTNHSVDQLQKAMKETKGMISLKVIPNQQSRLPALQMFMRAQFDYDPKKDNLIPCKEAGLKFATGDIIQIINKDDSNWWQGRVEGSSKESAGLIPSPELQEWRVASMAQSAPSEAPSCSPFGKKKKYKDKYLAKHSSIFDQLDVVSYEEVVRLPAFKRKTLVLIGASGVGRSHIKNALLSQNPEKFVYPVPYTTRPPRKSEEDGKEYHFISTEEMTRNISANEFLEFGSYQGNMFGTKFETVHQIHKQNKIAILDIEPQTLKIVRTAELSPFIVFIAPTDQGTQTEALQQLQKDSEAIRSQYAHYFDLSLVNNGVDETLKKLQEAFDQACSSPQWVPVSWVY	0.248	0.0047	19000	0.181	0.0085	47000	–	–	–	–	–	–

The next lines start with the values.

Kd [1] [µM]	koff [1] [s⁻¹]	kon [1] [M⁻¹ s⁻¹]	Kd [2] [µM]	koff [2] [s⁻¹]	kon [2] [M⁻¹ s⁻¹]	Kd (complex of 4.1G and CaM [3]) [µM]	koff (complex of 4.1G and CaM [3]) [s⁻¹]	kon (complex of 4.1G and CaM [3]) [M⁻¹ s⁻¹]	Kd (complex of 4.1G and CaM [4]) [µM]	koff (complex of 4.1G and CaM [4]) [s⁻¹]	kon (complex of 4.1G and CaM [4]) [M⁻¹ s⁻¹]	Binder
0.329	0.015	42000	0.178	0.0066	38000	0.197	0.014	71000	–	–	–	cytoplasmic domain of CD44 (domain or fragment, UniProt P16070 671-742, looked up) NSRRRCGQKKKLVINSGNGAVEDRKPSGLNGEASKSQEMVHLVNKESSETPDQFMTADETRNLQNVDMKIGV
–	–	–	–	–	–	0.155	0.013	84000	1.25	0.015	12000	RYMYRHKGTYHTNEAKGTEFAESADAALQGDPALQDAGDSSRKEYFI (domain or fragment, UniProt P04921 82-128, looked up) [cytoplasmic domain of glycophorin C]
